Reference: patent publication US20050261472A1, “Binding moieties for fibrin” (Dyax Corp., priority 1999, published 2005)
Bridge positions count the residues as written; N and C are the ends. Ends that are not written are not given here. Peptide text beside a SMILES is read from it.

Target: T1, DD(E) (Homo sapiens, UniProt P02671+P02675+P02679)
T1 construct: host or cells: purchased fibrinogen clotted with thrombin, digested with plasmin, then purified by ammonium sulfate cuts and Sephacryl S200
T1 sequence (P02671 130-216): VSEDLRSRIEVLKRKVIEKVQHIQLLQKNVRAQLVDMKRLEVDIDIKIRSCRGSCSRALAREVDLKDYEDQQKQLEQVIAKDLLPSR
T1 sequence (P02675 164-491): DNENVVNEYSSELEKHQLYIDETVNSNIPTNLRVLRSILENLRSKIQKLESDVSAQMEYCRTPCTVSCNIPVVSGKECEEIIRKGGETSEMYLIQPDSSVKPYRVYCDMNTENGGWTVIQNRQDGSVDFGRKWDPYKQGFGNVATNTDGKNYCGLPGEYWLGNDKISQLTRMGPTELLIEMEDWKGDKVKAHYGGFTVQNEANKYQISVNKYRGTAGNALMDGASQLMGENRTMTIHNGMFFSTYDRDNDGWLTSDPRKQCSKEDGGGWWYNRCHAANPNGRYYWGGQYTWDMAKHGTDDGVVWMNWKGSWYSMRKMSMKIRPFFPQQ
T1 sequence (P02679 114-432): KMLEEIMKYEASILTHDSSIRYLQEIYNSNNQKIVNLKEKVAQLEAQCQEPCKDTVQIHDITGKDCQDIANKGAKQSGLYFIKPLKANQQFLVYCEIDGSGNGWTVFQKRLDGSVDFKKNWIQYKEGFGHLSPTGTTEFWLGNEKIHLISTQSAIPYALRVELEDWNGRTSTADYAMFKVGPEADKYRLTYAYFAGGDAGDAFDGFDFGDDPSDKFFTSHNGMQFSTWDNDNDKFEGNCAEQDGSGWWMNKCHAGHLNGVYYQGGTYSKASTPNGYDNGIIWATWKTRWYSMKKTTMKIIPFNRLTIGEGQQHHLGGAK
T1 sequence (P02671 36-97): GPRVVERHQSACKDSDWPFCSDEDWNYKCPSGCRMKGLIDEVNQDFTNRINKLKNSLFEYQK
T1 sequence (P02675 45-152): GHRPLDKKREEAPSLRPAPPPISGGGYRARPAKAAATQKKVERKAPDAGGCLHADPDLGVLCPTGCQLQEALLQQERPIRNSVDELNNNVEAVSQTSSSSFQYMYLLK
T1 sequence (P02679 27-88): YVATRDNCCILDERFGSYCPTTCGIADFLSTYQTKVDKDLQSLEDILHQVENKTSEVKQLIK
Assay: dissociation constant against fibrin-derived polypeptide DD(E)
Assay type: binding
Settings: cyclic peptides of Table 12; unit inferred; read-out: Kd against DD(E)
Experimental: The soluble fibrin-derived polypeptide DD(E) was prepared following a modification of a published method (Moskoitz and Budzynksi, Biochemistry, 33: 12937-12944 (1994) and references therein). Fibrinogen containing a Factor XIII trace impurity (1 g, Grade L; purchased from American Diagnostica) was dissolved in TBS buffer and dialyzed overnight against TBS containing 5 mM citrate. The fibrinogen concentration was adjusted to 3.0 mg/ml and CaCl2 was added to a concentration of 10 mM. Clotting of the fibrinogen was initiated by the addition of thrombin to 0.5 U/ml and the clot was incubated for 3 hours at 37° C. The clot was cut up with a spatula to release water and to concentrate the clot. The clot pieces were washed twice with TBS.Ca buffer (TBS containing 2 mM CaCl2) and were centrifuged at 4,000×g to compact the clots between washes. The clot material was resuspended in 250 ml TBS containing 25 mM CaCl2 and 2 K.I.U. plasmin per mg fibrin. The clots were digested overnight at 20° C. Undigested clot was removed by pipette, and the supernatant was shaken with 10 ml of Lysine Sepharose (Pharmacia) for 30 minutes and filtered to remove the resin. Aprotinin was added to the filtrate to a concentration of 500 U/μL. Ammonium Sulfate was added to 30% saturation and the precipitated protein was removed by centrifugation. More ammonium sulfate was added to the supernatant to a final concentration of 50% saturation, and the precipitated protein was concentrated by centrifugation. The pellets, containing DD(E), were resuspended in a small volume of buffer (50 mM Tris, 150 mM NaCl, 2 mM CaCl2) (<10 ml) and chromatographed on a Sephacryl S200 (Pharmacia) size exclusion column (5×100 cm) in the same buffer. Fractions of protein eluted from the column were assayed by SDS-PAGE for DD(E). DD(E) contains subunits of 55 kD (Fragment E) and 190 kD (Fragment DD). […]
Dissociation constants were determined against DD(E) as described above.

Kd	Molecule
179 µM	side-chain-to-side-chain cyclic peptide bearing a central Tyr-Tyr-Gly-Thr moiety [(III)]

Same assay, conditions: read-out: Kd DD(E)

Kd	Molecule
28 µM	CC(C)C[C@H](NC(=O)[C@@H]1CSSC[C@H](NC(=O)[C@@H]2CCCN2C(=O)[C@@H](N)CC(C)C)C(=O)N[C@@H](CC(=O)O)C(=O)N[C@@H](Cc2ccc(O)cc2)C(=O)N[C@@H](Cc2ccc(O)cc2)C(=O)NCC(=O)N[C@@H](C(C)C)C(=O)N1)C(=O)N[C@@H](CC(=O)O)C(N)=O [SEQ ID NO: 51, LPCDYYGVCLD] (H-LPCDYYGVCLD-NH2; disulfide 3-9)

Target: DD(E) soluble fibrin-derived polypeptide (UniProt P02671)
Assay: Kd against DD(E) target
Settings: not given

Molecule	Kd
H-LPCDYYGTCAD-NH2 (disulfide 3-9; SMILES CC(C)C[C@H](N)C(=O)N1CCC[C@H]1C(=O)N[C@H]1CSSC[C@@H](C(=O)N[C@@H](C)C(=O)N[C@@H](CC(=O)O)C(N)=O)NC(=O)[C@H]([C@@H](C)O)NC(=O)CNC(=O)[C@H](Cc2ccc(O)cc2)NC(=O)[C@H](Cc2ccc(O)cc2)NC(=O)[C@H](CC(=O)O)NC1=O)	10.1 µM
H-PCDYYGTCL-NH2 (disulfide 2-8 (inferred)) [truncated peptide …]	50 µM
H-LPCAYYGTCLD-NH2 (disulfide 3-9; SMILES CC(C)C[C@H](NC(=O)[C@@H]1CSSC[C@H](NC(=O)[C@@H]2CCCN2C(=O)[C@@H](N)CC(C)C)C(=O)N[C@@H](C)C(=O)N[C@@H](Cc2ccc(O)cc2)C(=O)N[C@@H](Cc2ccc(O)cc2)C(=O)NCC(=O)N[C@@H]([C@@H](C)O)C(=O)N1)C(=O)N[C@@H](CC(=O)O)C(N)=O)	5.9 µM
LPCDYXGTCLD (1-naphthyl residue (Nal) at position 6; C-terminal amide; N-terminus free) [substituted peptide LPCDYNalGTCLD]	125 µM
H-CDYYGTCL-NH2 (disulfide 1-7 (inferred)) [truncated peptide CDYYGTCL]	22 µM
LPCDYYATCLD (C-terminal amide; N-terminus free)	12.3 µM
H-LPCDYYGVCLD-NH2 (disulfide 3-9 (inferred))	28 µM
GFHCPYDLCHIL	6.7 µM
H-LPCDYYGSCLD-NH2 (disulfide 3-9 (inferred))	26 µM
H-LPCSYYGTCLH-NH2 (disulfide 3-9; SMILES CC(C)C[C@H](NC(=O)[C@@H]1CSSC[C@H](NC(=O)[C@@H]2CCCN2C(=O)[C@@H](N)CC(C)C)C(=O)N[C@@H](CO)C(=O)N[C@@H](Cc2ccc(O)cc2)C(=O)N[C@@H](Cc2ccc(O)cc2)C(=O)NCC(=O)N[C@@H]([C@@H](C)O)C(=O)N1)C(=O)N[C@@H](Cc1c[nH]cn1)C(N)=O)	9.8 µM
H-CDYYGTC-NH2 (disulfide 1-7 (inferred)) [truncated peptide CDYYGTC]	38 µM
H-FACHYYGTCLH-NH2 (disulfide 3-9; SMILES CC(C)C[C@H](NC(=O)[C@@H]1CSSC[C@H](NC(=O)[C@H](C)NC(=O)[C@@H](N)Cc2ccccc2)C(=O)N[C@@H](Cc2c[nH]cn2)C(=O)N[C@@H](Cc2ccc(O)cc2)C(=O)N[C@@H](Cc2ccc(O)cc2)C(=O)NCC(=O)N[C@@H]([C@@H](C)O)C(=O)N1)C(=O)N[C@@H](Cc1c[nH]cn1)C(N)=O)	7.3 µM

The next lines start with the values.

Kd	Molecule
4.9 µM	LPCDYYXTCLD (not fully specified; D-alanine at position 7) [D-alanine peptide LPCDYYdATCLD]
4.5 µM	H-LPCDAYGTCLD-NH2 (disulfide 3-9; SMILES CC(C)C[C@H](NC(=O)[C@@H]1CSSC[C@H](NC(=O)[C@@H]2CCCN2C(=O)[C@@H](N)CC(C)C)C(=O)N[C@@H](CC(=O)O)C(=O)N[C@@H](C)C(=O)N[C@@H](Cc2ccc(O)cc2)C(=O)NCC(=O)N[C@@H]([C@@H](C)O)C(=O)N1)C(=O)N[C@@H](CC(=O)O)C(N)=O)
4 µM	H-RPCNYYGTCLH-NH2 (disulfide 3-9; SMILES CC(C)C[C@H](NC(=O)[C@@H]1CSSC[C@H](NC(=O)[C@@H]2CCCN2C(=O)[C@@H](N)CCCNC(=N)N)C(=O)N[C@@H](CC(N)=O)C(=O)N[C@@H](Cc2ccc(O)cc2)C(=O)N[C@@H](Cc2ccc(O)cc2)C(=O)NCC(=O)N[C@@H]([C@@H](C)O)C(=O)N1)C(=O)N[C@@H](Cc1c[nH]cn1)C(N)=O)
3.87 µM	WECPYGLCWI
3.8 µM	HCPYDLCHIL
3.4 µM	H-RPCDYYGTCFD-NH2 (disulfide 3-9; SMILES C[C@@H](O)[C@@H]1NC(=O)CNC(=O)[C@H](Cc2ccc(O)cc2)NC(=O)[C@H](Cc2ccc(O)cc2)NC(=O)[C@H](CC(=O)O)NC(=O)[C@@H](NC(=O)[C@@H]2CCCN2C(=O)[C@@H](N)CCCNC(=N)N)CSSC[C@@H](C(=O)N[C@@H](Cc2ccccc2)C(=O)N[C@@H](CC(=O)O)C(N)=O)NC1=O)
2.9 µM	H-LACDYYGTCLD-NH2 (disulfide 3-9; SMILES CC(C)C[C@H](NC(=O)[C@@H]1CSSC[C@H](NC(=O)[C@H](C)NC(=O)[C@@H](N)CC(C)C)C(=O)N[C@@H](CC(=O)O)C(=O)N[C@@H](Cc2ccc(O)cc2)C(=O)N[C@@H](Cc2ccc(O)cc2)C(=O)NCC(=O)N[C@@H]([C@@H](C)O)C(=O)N1)C(=O)N[C@@H](CC(=O)O)C(N)=O)
2.9 µM	GWFHCPYDLCHIL (disulfide 5-10 (inferred); not fully specified (N-terminus); printed as Trp-Phe-His-Cys-Pro-Tyr-Asp-Leu-Cys-His-Ile-Leu; also: Gd(III) chelated by DTPA on N-terminal Gly) [Gd-DTPA-Gly[SEQ ID NO: 21]]
2.6 µM	H-LPCDYYGTCLD-NH2 (disulfide 3-9 (inferred))
2.23 µM	ECPYGLCWIQ
2 µM	FHCPYDLCHI
0.94 µM	WECPYGLCWIQ
0.41 µM	FHCPYDLCHIL
